The source of these data is publication PMC7666139 (Communications Biology, 2020).

Common to all, as to details: both partners purified
The target of experiment [1] is T1, 6xHis-tagged HACS1 SH3 domain (human, UniProt Q9NSI8 163-224).
T1 construct: human HACS1 SH3 domain, codon-optimized synthetic gene; Gene synthesized, in a pD441NH expression vector (ATUM); 15N-labelled in the NMR experiments; Minimal folded SH3 domain is 168-222 by the NMR structure; also called HACS SH3 domain; 6xHis-tagged SH3 domain; source: E. coli, purified (Nickel-NTA, gel filtration)
Put plainly: SPR; biotinylated phosphopeptide on a streptavidin gold sensor chip (OpenSPR); analyte 20 µM to 0.1 µM in 10 mM Tris-HCl, 100 mM NaCl, pH 7.4, 0.1% bovine serum albumin, 0.005% Tween-20, 0.05% NaN3; 40 µL/min; 1:1 interaction model.

The target of experiment [2] is T2, 6xHis/Flag-tagged human SHP2 N-SH2 domain (human, UniProt Q06124 1-107).
T2 construct: human SHP2 phosphatase, N-SH2 domain, aa; 1-107; Gene synthesized; also called SHP2 SH2-N; SHP2 SH2(N) domain; source: E. coli, purified (Nickel-NTA, gel filtration)
T2 sequence (looked up): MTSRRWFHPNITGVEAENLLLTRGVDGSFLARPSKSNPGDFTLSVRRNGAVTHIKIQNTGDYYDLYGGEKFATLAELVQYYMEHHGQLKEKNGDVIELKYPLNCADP
The experiment is described as above.

Experiment [3] concerns the target T1, 6xHis-tagged HACS1 SH3 domain. Put plainly: ITC; 600 µM PIRB-GB1 in the syringe, 37 µM 6xHis-tagged HACS1 SH3 domain in the cell; 10 mM Tris, 50 mM NaCl, 1 mM TCEP, 0.05 NaN3, pH 7.5; single-site binding model.

Non-standard residues stand in square brackets, D forms with d. No end group written: not given here. pY = N[C@@H](Cc1ccc(OP(=O)(O)O)cc1)C(=O)O

T1 sequence (Q9NSI8 163-224): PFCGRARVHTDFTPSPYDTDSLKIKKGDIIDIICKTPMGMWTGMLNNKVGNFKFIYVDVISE

B1: biotinylated human PIRB derived phosphopeptide (peptide)
chain: GGQDVT[pY]AQLHSLTRLREATE
modifications: also: biotin (position not given here)
In the case of B1, in experiment [1], the Kd was 8.7 µM, the koff is 0.017 s⁻¹ and the kon worked out at 1900 M⁻¹ s⁻¹. For the same molecule, in experiment [2], the Kd turned out to be 6.7 µM, the koff came out at 0.026 s⁻¹ and the kon was 3800 M⁻¹ s⁻¹.

B2: murine PIRB-GB1 fusion protein (peptide, UniProt P97484 797-809, looked up)
chain: LCSRTLRQGAAAS
notes: 797-809; Methods: PIRB fragment and GB1 separated by a random 13 amino acid linker; Not phosphorylated; also called PIRB-GB1 hybrid protein; Protein GB1-tagged PIRB; source: E. coli, purified (Nickel-NTA, gel filtration); not shown: Protein G B1 domain (GB1), C-terminal, kept
In the case of B2, in experiment [3], the Kd turned out to be 15.9 µM and the “stoichiometry N” value was 1.

B3: biotinylated murine PIRB derived phosphopeptide (peptide)
peptide: GGQDVT[pY]AQLCSRTLRQGAAAS
modifications: also: biotin (position not given here)
notes: The leading GG may be a spacer and not part of PIRB; also called murine PIRB phospho-ITIM3 peptide; source: synthetic peptide (Genscript)
Consider B3, for which binding in experiment [1] was put at a Kd of 15.9 µM.

By Kd is commonly meant a measure of binding affinity in units of concentration. High values mean weaker binding, low ones tighter binding. Broadly, the koff is the rate constant with which the complex falls apart. High values mean fast dissociation, low ones slow dissociation. The kon is the second-order rate constant of association. Higher therefore signals fast association. As usually defined, the stoichiometry N is the number of molecules, sites or subunits per partner or assembly.
